Data published in patent US12491259B2, “Anti-variable MUC1* antibodies and uses thereof” (Minerva Biotechnologies Corporation, priority 2022, dated 2025).
Marks after values point to notes of the source that are not given here.

Assays:
[1] = test system: NCI-H1975 lung cancer cells; experiment: xCELLigence real-time killing assay (impedance); type: cell-based, human; conditions: readout 0 to 120 hours, DAR 8.2 (FIG. 56)
Method: FIG. 51A-51I show traces from the real-time killing assays performed on an xCELLigence instrument. In this assay, impedance is measured in real-time. When the adherent cancer cells are killed and come off of the electrode surface, impedance (insulation) decreases. NCI-H1975 lung cancer cells were plated onto multi-electrode-well plates at 5,000 cells per well and allowed to adhere and grow for 24 hours before the addition of ADCs. Either MNC2-MMAE, DAR 4.1, MN20A10-MMAE, DAR 5.8, MNC2-MMAF, DAR 3.7, MN20A10-MMAF, DAR 3.8, MNC2-Deruxtecan, DAR 7.2, or MN20A10-Deruxtecan, DAR 4.6, was then added to the cancer cells. […] Taxol and Triton are added as the positive killing control. […].
FIGS. 56A-56D show traces from the real-time killing assays performed on an xCELLigence instrument. In this assay, impedance is measured in real-time. When the adherent cancer cells are killed and come off of the electrode surface, impedance (insulation) decreases. Here NCI-H1975 non-small cell lung cancer cells that express very low levels of MUC1*, were plated onto multi-electrode 96-well plates at 5,000 cells per well and allowed to adhere and grow for 24 hours before the addition of ADCs. Either MNC2-Exatecan, DAR 8.2, MNC2-Deruxtecan, DAR 4.0, MNC2-MMAE, DAR 4.1, or free Exatecan at 50 μM, was then added to the cancer cells.
(§1) To assess real-time killing of target cancer cells including breast cancer cells (T47D), non-small cell lung cancer cells (NCI-H1975) and pancreatic cancer cells (HP AF II) assays were performed on an xCELLigence RTCA MP Instrument (Agilent). Target Cancer cells were seeded onto a multi-electrode well plate at a density of 5000 cells/well (100 μL of a 50,000 cells/mL stock) and incubated for 24 hr in a 37° C./5% CO2 incubator. mAb MNC2 ADCs or mAb MN20A10-ADCs were prepared as a 2× solution in corresponding growth media and 100 μL of each concentration was added to target cells. As a positive control (100% cell killing) cells were treated with either 1% triton or 1 μM Taxol instead of ADC. After 40-120 hours incubation in a 37° C./5% CO2 incubator cell killing was assessed. In this assay, impedance is measured in real-time. When the adherent cancer cells are killed and come off the electrode surface, impedance (insulation) decreases.
(§2) MNC2-ADCs and MN20A10-ADCs were also assayed for their ability to kill both low and high MUC1* expressing cells by monitoring killing in real-time using an xCELLigence instrument. In the xCelligence system, target cancer cells, which are adherent, are plated onto electrode array 96-well plates. Adherent cells insulate the electrode and increase the impedance. The number of adherent cancer cells is directly proportional to impedance. […] Therefore, increasing impedance reflects the growth of the cancer cells and decreasing impedance reflects the killing of the cancer cells.

[2] = test system: cancer cells that express low levels of MUC1*; experiment: xCELLigence real-time killing assay, summary over low expressers; type: cell-based; conditions: FIG. 54 and FIG. 56, DAR 8.2
[3] = test system: T47D wild-type breast cancer cells; experiment: xCELLigence real-time killing assay (impedance); type: cell-based, human
Method: FIGS. 49A-49J show traces from the real-time killing assays performed on an xCELLigence instrument. In this assay, impedance is measured in real-time. When the adherent cancer cells are killed and come off of the electrode surface, impedance (insulation) decreases. T47D wild-type breast cancer cells were plated onto multi-electrode-well plates at 5,000 cells per well and allowed to adhere and grow for 24 hours before the addition of ADCs. Either MNC2-MMAE, DAR 4.1, MN20A10-MMAE, DAR 5.8, MNC2-MMAF, DAR 3.7, MN20A10-MMAF, DAR 3.8, MNC2-Deruxtecan, DAR 7.2, or MN20A10-Deruxtecan, DAR 4.6, was then added to the cancer cells. […] Taxol and Triton are added as the positive killing control. […] Taxol and Triton are added as the positive killing control. […]
as §1, §2
Breast cancer cell line T47D-wt expresses MUC1* at low to low-medium levels. Pancreatic cancer cell line HPAF II-wt expresses even lower levels of MUC1* and lung cancer cell line NCI-H1975 express still lower levels of MUC1*.

[4] = test system: T47D-MUC1* breast cancer cells; experiment: xCELLigence real-time killing assay (impedance); type: cell-based, human
Method: In this assay, impedance is measured in real-time. When the adherent cancer cells are killed and come off of the electrode surface, impedance (insulation) decreases. […] Either MNC2-MMAE, DAR 4.1, MN20A10-MMAE, DAR 5.8, MNC2-MMAF, DAR 3.7, MN20A10-MMAF, DAR 3.8, MNC2-Deruxtecan, DAR 7.2, or MN20A10-Deruxtecan, DAR 4.6, was then added to the cancer cells. […] Taxol and Triton are added as the positive killing control. […] Taxol and Triton are added as the positive killing control.
In this assay, impedance is measured in real-time. When the adherent cancer cells are killed and come off of the electrode surface, impedance (insulation) decreases. […] Either MNC2-Exatecan, DAR 8.2, MNC2-Deruxtecan, DAR 4.0, MNC2-MMAE, DAR 4.1, or free Exatecan at 50 μM, was then added to the cancer cells.
as §1, §2

[5] = Toxicities in animal studies of the ADC formats; type: in vivo; conditions: each antibody incorporated into several ADC formats
Source text: Exatecans have a high level of bystander effect, meaning that they can kill neighboring cells. […] It is not completely clear whether these side effects are due to the payload or to the target, HER2, which is also expressed on normal lung and normal heart. Recall that the first two patients treated with a HER2 targeting CAR T cell product died shortly after the infusion. […] More recently, yet another patient died after being treated with a different HER2-targeting ADC.

[6] = test system: DU145 hormone refractory prostate cancer cells; experiment: PrestoBlue live/dead cell assay and brightfield photographs; type: cell-based; conditions: 500 nM, 20× magnification

B1: MNC2-Exatecan (conjugate)
VH: EVQLVESGGGLVKPGGSLRLSCAASGFTFSGYAMSWVRQAPGKGLEWVSTISSGGTYIYYPDSVKGRFTISRDNAKNSLYLQMNSLRAEDTAVYYCARLGGDNYYEYFDVWGKGTTVTVSS
VL: DIVLTQSPASLAVSPGQRATITCRASKSVSTSGYSYMHWYQQKPGQPPKLLIYLASNLESGVPARFSGSGSGTDFTLTINPVEANDTANYYCQHSRELPFTFGGGTKVEIKRT
[1]
  concentration as low as which cancer cells are potently killed: 167 nM
[2]
  killing potency compared with MNC2-deruxtecan (DAR 4.0) and MNC2-MMAE (DAR 4.1): more potent killing of the low MUC1* expressing cancer cells
[3]; readout 0 to 120 hours, DAR 8.2 (FIG. 54)
  concentration as low as which target cancer cells are potently killed: 56 nM
[4]; readout 0 to 120 hours, MNC2-Exatecan DAR 8.2, MNC2-Deruxtecan DAR 4.0 (FIG. 55)
  concentration as low as which cancer cells are potently killed: as low as 6.2 nM and even as low as 2.1 nM

B2: MN20A10: anti-MUC1* antibody, IgG2b isotype, CDRs SEQ ID NO 1-3 and 13-15 (antibody, V domains shown)
VH: EVMLVESGGGLVKPGGSLKLSCAASGFTFSTYAMSWIRQTPEKRLEWVASIGRAGSTYYSDSVKGRFTISRDNVRNILYLQMSSLRSEDTAMYYCARGPIYNDYDEFAYWGQGTLVTVSA
VL: NIMMTQSPSSLAVSAGEKVTMSCKSSQSVLYSSNQKNYLAWYQQKPGQSPKLLIYWASTRESGVPDRFTGSGSGTDFTLTISSVQAEDLAVYYCHQYLSSLTFGAGTKLELK
[5]
  toxicities: elicited no toxicities in animal studies

B3: MN20A10-Deruxtecan (conjugate)
VH: QVQLVESGGGLVKPGGSLRLSCAASGFTFSTYAMSWIRQAPGKGLEWVASIGRAGSTYYSDSVKGRFTISRDNAKNSLYLQMNSLRAEDTAVYYCARGPIYNDYDEFAYWGQGTLVTVSS
VL: EIVLTQSPATLSLSPGERATLSCKSSQSVLYSSNQKNYLAWYQQKPGQAPRLLIYWASTRESGIPARFSGSGSGTDFTLTISSLEPEDFAVYYCHQYLSSLTFGGGTKVEIKR
[6]
  cell morphology in photographs: rounding up and dead cells
[3]; after 120 hours
  concentration showing potent / effective / comparable killing: 167 nM
[3]; by 120 hours, DAR 4.6
  concentration with significant killing: 167 nM
[4]; readout 120 hours post ADC addition
  ADC concentration at which essentially all (near total) tumor cells were killed: 167 nM
